Data from patent publication US8361473B2, “Antibodies and their uses for diagnosis and treatment of cytomegalovirus infection and associated diseases” (priority 2007, dated 2013).

Experiments:
[1] = test system: HLA-A2/pp65 complex (pp65 495-503 peptide); experiment: ELISA with phage clones and purified Fab Abs, specific complex; assay type: binding, human; conditions: soluble purified Fab
Procedure: ELISA with phage clones and purified Fab Abs—The binding specificities of individual phage clones and soluble Fab were determined by ELISA using biotinylated scMHC-peptide complexes. ELISA plates (Falcon) were coated overnight with BSA-biotin (1 μg/well). After having been washed, the plates were incubated (1 hour, RT) with streptavidin (1 μg/well), washed extensively, and further incubated (1 hour, RT) with 0.5 μg of MHC/peptide complexes. The plates were blocked for 30 minutes at RT with PBS/2% skim milk and subsequently were incubated for 1 hour at RT with phage clones (˜10^9 phages/well) or various concentrations of soluble purified Fab. […]
A large human Fab library containing 3.7×10^10 different Fab clones was used for the selection on biotinylatd HLA-A2/pp65 complexes (De Haard H J., et al., 1999). […] Specificity of the selected phage antibodies against the complex was analyzed by a differential ELISA assay in which binding was tested against specific (pp65 495-503 peptide; SEQ ID NO:3) and non specific (gp100 280-288 peptide; SEQ ID NO:4) biotinylated HLA-A2/peptide complexes. […]
To determine the correct folding of the bound complexes and their stability during the binding assays, the ability of the complexes to react with the conformation-specific mAb, w6/32, that recognizes HLA complexes only when folded correctly and when containing peptide was monitored.

[2] = target: T1, pp65-loaded RMA-S-HHD cells (UniProt P06725+P61769); experiment: Flow cytometry on peptide-loaded RMA-S-HHD cells; assay type: cell-based, murine; conditions: Fab, control: EBV derived peptide
T1 construct: expressed in transfected cells; host or cells: murine TAP2-deficient RMA-S cells (RMA-S-HHD)
Procedure: Flow cytometry—The B cell line RMAS-HHD, which is transfected with a single-chain β2m-HLA-A2 gene, the EBV-transformed HLA-A2^+ JY cells, and the HLA-A2− B cell line APD-70 were used to determine the reactivity of the recombinant Fab Abs with cell surface-expressed HLA-A2/peptide complexes. Peptide pulsing was performed as indicated: 10^6 cells were washed twice with serum-free RPMI and incubated overnight at 26° C. or 37° C., respectively, in medium containing 1-50 μM of the peptide. The RMAS-HHD cells were subsequently incubated at 37° C. for 2-3 hours to stabilize cell surface expression of MHC-peptide complexes.
Cells were incubated for 60 minutes at 4° C. with recombinant Fab Abs (10 μg/ml) in 100 μl PBS. After one wash, the cells were incubated with 1 μg anti-human Fab (Jackson ImmunoResearch) for another 60 minutes at 4° C. After three washes, the cells were resuspended in ice-cold PBS. The cells were analyzed by a FACStar flow cytometer (BD Biosciences, San Jose, Calif.).
The pp65495-503 peptide and control peptides were loaded on RMA-S-HHD cells and the ability of the selected Fab Abs to bind to peptide-loaded cells was monitored by flow cytometry.

B1: F5: human recombinant TCR-like Fab clone specific for HLA-A2/pp65 495-503; heavy chain SEQ ID NO:20, light chain SEQ ID NO:22 (antibody)
heavy: QVQLQESGPGLVKPSETLSLTCTVSGGSISSSNYYWGWIRQPPGKGLEWIGAIYYSGSTYYNPSLKSRVAISVDTSKNQFSLKLSSVTAADTAVYYCARRIGVAGQWYFDLWGRGTLVTVSSASTKGPSVFPLAPSSKSTSGGTAALGCLVKDYFPEPVTVSWNSGALTSGVHTFPAVLQSSGLYSLSSVVTVPSSSLGTQTYICNVNHKPSNTKVDKKVEPKSC
light: LNFMLTQPHSVSGSPGKTVTISCTRSTGSITSNYVHWYQQRPGSSPTTVICEDNERPSGVPDRFSGSIDISSNSASLTISGLKTEDEADYYCQSYDDSNHISVFGTGTKVTVLGQPKANPCLISDFYPGAVTVAWKADGSPVKAGVETTKPSKQSNNKYAASSYLSLTPEQWKSHRSYSCQVTHEGSTVEKTVAPAECS
modifications: F5 Fab heavy chain polypeptide sequence; F5 Fab light chain polypeptide sequence
- binding to the specific HLA-A2/pp65 complex [1]: Specificity towards HLA-A2/pp65 complex
- reactivity with peptide-loaded RMA-S-HHD cells [2]: reacted only with pp65-loaded RMA-S-HHD cells
